From US20180230219A1 (HELIX BIOPHARMA, published 2018)

Target: T1, human VEGFR-2/Fc (R&D Systems) (human, UniProt P35968 20-764)
T1 construct: also called recombinant VEGFR2/Fc; VEGFR/Fc; not shown: Fc part of the bought fusion protein (captured by anti-human IgG-Fc in the ELISA)
Assay: SPR, Biacore 3000, human VEGFR-2/Fc immobilized

T1 sequence (P35968 20-764): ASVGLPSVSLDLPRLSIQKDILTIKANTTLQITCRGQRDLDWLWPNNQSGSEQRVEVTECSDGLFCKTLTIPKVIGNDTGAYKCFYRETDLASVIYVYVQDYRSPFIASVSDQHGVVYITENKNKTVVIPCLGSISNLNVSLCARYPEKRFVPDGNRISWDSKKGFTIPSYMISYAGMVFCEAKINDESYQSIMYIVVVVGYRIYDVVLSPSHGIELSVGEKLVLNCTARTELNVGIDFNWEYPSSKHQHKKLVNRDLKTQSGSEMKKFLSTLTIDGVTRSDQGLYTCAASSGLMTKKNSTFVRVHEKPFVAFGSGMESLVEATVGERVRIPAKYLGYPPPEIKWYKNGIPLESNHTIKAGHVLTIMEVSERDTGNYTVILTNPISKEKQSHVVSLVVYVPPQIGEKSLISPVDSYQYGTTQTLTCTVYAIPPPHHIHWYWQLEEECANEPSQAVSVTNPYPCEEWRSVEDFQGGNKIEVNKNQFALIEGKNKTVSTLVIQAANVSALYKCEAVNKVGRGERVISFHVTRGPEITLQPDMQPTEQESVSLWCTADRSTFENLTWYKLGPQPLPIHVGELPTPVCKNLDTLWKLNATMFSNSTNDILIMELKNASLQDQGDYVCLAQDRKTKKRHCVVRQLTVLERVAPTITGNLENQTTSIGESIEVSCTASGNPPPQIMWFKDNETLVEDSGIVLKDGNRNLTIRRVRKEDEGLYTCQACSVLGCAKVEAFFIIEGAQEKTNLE

Kd: 80 nM
koff: 0.015 s⁻¹
B1: AB4 with linker 2; VR2-38 (SEQ ID NO:27) (VHH)
VHH: QVKLEESGGGLVQAGGSLRLSCAASGGTASSYAMGWFRQAPGKEREFVAAISRSGGNTDYVDSAKGRFTISRDDAKNTVSLQMNSLRLEDTAVYYCAARYAGTWPNDAGTVYWLPPNYNYWGQGTQVTVSS
